Test results taken from the supplement of paper PMC9112550, “Optimization of the antimicrobial peptide Bac7 by deep mutational scanning” (BMC Biology, 2022).

Tested on: Escherichia coli TOP10
Assay: shrunken log2 fold change of peptide-encoding DNA abundance (4.5 h post-induction vs induction); higher = less antimicrobial activity (less host growth inhibition)
Details: time post-induction: 4.5 h; library: site-saturation at positions 5, 18, 19, 20
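Also: peptides expressed intracellularly from a pBAD plasmid library in pooled LB shake-flask culture, induced with 0.3% L-arabinose, DNA abundance read by NGS, three biological replicates, DESeq2 with apeglm shrinkage.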

Sequence | shrunken log2 fold change
RRIRLRPPRLPRPRPRPRPAPRP | 0.454
RRIRERPPRLPRPRPRPKSWPRP | 0.715
RRIRQRPPRLPRPRPRPMLMPRP | -0.0108
RRIRMRPPRLPRPRPRPTINPRP | -0.109
RRIRERPPRLPRPRPRPFTVPRP | -0.00987
RRIRARPPRLPRPRPRPGPNPRP | 0.66
RRIRMRPPRLPRPRPRPDLVPRP | 1.01
RRIRFRPPRLPRPRPRPPGTPRP | 0.316
RRIRMRPPRLPRPRPRPYGAPRP | -0.105
RRIRMRPPRLPRPRPRPSRAPRP | 1.18
RRIRYRPPRLPRPRPRPTERPRP | -0.532
RRIRWRPPRLPRPRPRPVLVPRP | 0.298
RRIRYRPPRLPRPRPRPDEVPRP | 0.000691
RRIRERPPRLPRPRPRPIVLPRP | -0.579
RRIRLRPPRLPRPRPRPITKPRP | 0.00247
RRIRERPPRLPRPRPRPILMPRP | -0.317
RRIRFRPPRLPRPRPRPYQPPRP | -0.269
RRIRNRPPRLPRPRPRPYSHPRP | -0.317
RRIRFRPPRLPRPRPRPEGIPRP | 0.00745
RRIRNRPPRLPRPRPRPQKQPRP | 0.00917
RRIRIRPPRLPRPRPRPVGYPRP | 0.0961
RRIRTRPPRLPRPRPRPWIEPRP | -0.042
RRIRARPPRLPRPRPRPDMMPRP | 0.139
RRIRPRPPRLPRPRPRPRLAPRP | 0.507
RRIRARPPRLPRPRPRPSLPPRP | 0.157

Sequence | shrunken log2 fold change
RRIRNRPPRLPRPRPRPGTHPRP | -0.16
RRIRTRPPRLPRPRPRPPGGPRP | 0.637
RRIRMRPPRLPRPRPRPVDLPRP | 0.405
RRIRRRPPRLPRPRPRPWWTPRP | 0.0815
RRIRSRPPRLPRPRPRPGQPPRP | 0.214
RRIRTRPPRLPRPRPRPWHRPRP | -0.126
RRIRFRPPRLPRPRPRPYVIPRP | -0.303
RRIRSRPPRLPRPRPRPGYHPRP | -0.512
RRIRGRPPRLPRPRPRPAMHPRP | 1.03
RRIRKRPPRLPRPRPRPFLHPRP | -0.0903
RRIRIRPPRLPRPRPRPPFQPRP | 0.0365
RRIRMRPPRLPRPRPRPLAKPRP | 0.791
RRIRSRPPRLPRPRPRPGRWPRP | 0.657
RRIRMRPPRLPRPRPRPHNMPRP | -0.243
RRIRYRPPRLPRPRPRPWKPPRP | -0.2
RRIRGRPPRLPRPRPRPPNKPRP | 0.528
RRIRYRPPRLPRPRPRPKWGPRP | -0.297
RRIRVRPPRLPRPRPRPWHHPRP | 0.0243
RRIRCRPPRLPRPRPRPLRIPRP | -0.0238
RRIRDRPPRLPRPRPRPLRAPRP | 1.15
RRIRNRPPRLPRPRPRPTNIPRP | -0.312
RRIRDRPPRLPRPRPRPAYDPRP | 0.0094
RRIRWRPPRLPRPRPRPIHSPRP | -0.0401
RRIRYRPPRLPRPRPRPFWTPRP | -0.111
RRIRERPPRLPRPRPRPPNYPRP | -0.201
